Results published in US20260242447A1 (CREATIVE BIOTHERAPEUTICS, published 2026).

Columns and labels:
[1] = target: T1, GRP78 (soluble / recombinant protein) (UniProt P11021 19-654)
[2] = target: T1, GRP78 (soluble / recombinant protein); assay: method not stated

T1 sequence (P11021 19-654 limits assumed): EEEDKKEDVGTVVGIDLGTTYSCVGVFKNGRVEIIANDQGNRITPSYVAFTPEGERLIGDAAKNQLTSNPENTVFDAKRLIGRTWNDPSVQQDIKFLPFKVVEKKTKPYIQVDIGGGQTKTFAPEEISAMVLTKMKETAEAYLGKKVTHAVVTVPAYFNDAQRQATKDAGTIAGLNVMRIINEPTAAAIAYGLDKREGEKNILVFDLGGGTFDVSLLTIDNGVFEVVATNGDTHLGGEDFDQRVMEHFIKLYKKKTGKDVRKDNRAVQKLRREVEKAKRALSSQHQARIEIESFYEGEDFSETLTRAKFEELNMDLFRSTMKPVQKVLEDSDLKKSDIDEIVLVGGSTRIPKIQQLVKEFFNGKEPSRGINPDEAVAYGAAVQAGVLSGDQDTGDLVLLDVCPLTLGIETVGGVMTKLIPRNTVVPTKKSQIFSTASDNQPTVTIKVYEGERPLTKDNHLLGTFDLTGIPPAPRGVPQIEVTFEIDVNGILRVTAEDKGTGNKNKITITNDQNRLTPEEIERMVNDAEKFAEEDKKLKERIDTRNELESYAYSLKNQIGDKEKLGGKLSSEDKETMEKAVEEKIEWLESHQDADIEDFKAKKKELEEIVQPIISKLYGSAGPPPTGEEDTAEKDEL

B1: K5 (5th kringle domain of human plasminogen) (other)
chain: SEEDCMFGNGKGYRGKRATTVTGTPCQDWAAQEPHRHSIFTPETNPRAGLEKNYCRNPDGDVGGPWCYTTNPRKLYDYCDVPQCAAPKS
notes: also called kringle 5
IC50 [1]: 460 nM | Kd [2]: 0.6 nM
